Each block holds one binder with its values, some of them ahead of it. Numbered stars: 1 amine (or outer) side, 2 acyl side, 3 side chain; on linkers, the order of the positions; unused ones are H or OH. Bridge positions count the residues as written; N and C are the ends. Square brackets hold non-standard residues; d marks the D form. Ends that are not written are not given here. * marks the point of attachment. DM4 = maytansinoid, two hindering methyls on maytansine side, COc1cc2cc(c1Cl)N(C)C(=O)C[C@H](OC(=O)[C@H](C)N(C)C(=O)CCC(C)(C)S*)[C@]1(C)O[C@H]1[C@H](C)[C@@H]1C[C@@](O)(NC(=O)O1)[C@H](OC)/C=C/C=C(\C)C2; DM3 = maytansinoid, one hindering methyl on maytansine side, COc1cc2cc(c1Cl)N(C)C(=O)C[C@H](OC(=O)[C@H](C)N(C)C(=O)CCC(C)S*)[C@]1(C)O[C@H]1[C@H](C)[C@@H]1C[C@@](O)(NC(=O)O1)[C@H](OC)/C=C/C=C(\C)C2; disulfide linker, one methyl on bicycle side = not defined here; fluorescein = fluorescein label on the Lys side chain; unhindered disulfide linker = not defined here; 1Nal = N[C@@H](Cc1cccc2ccccc12)C(=O)O; TBMB = c1c(C[*:1])cc(C[*:3])cc1C[*:2]; disulfide linker = not defined here; Tle = CC(C)(C)[C@H](N)C(=O)O; DM1 = maytansinoid; βAla = NCCC(=O)O; Sar = CNCC(=O)O
Assays:
[1] = biological target: human MT1-MMP hemopexin domain (residues Cys319-Gly511, N-terminally His6-tagged soluble protein) (human) (UniProt P50281); assay: FP competition on human MT1-MMP hemopexin domain (per paragraph 249; tracer not given)
[2] = biological target: dog MT1-MMP hemopexin domain (dog); assay: FP competition, dog MT1-MMP hemopexin domain
[3] = biological target: human MT1-MMP hemopexin domain (residues Cys319-Gly511, N-terminally His6-tagged soluble protein) (human) (UniProt P50281); assay: FP competition, Human/cyno MT1-MMP hemopexin domain
[4] = biological target: human MT1-MMP hemopexin domain (residues Cys319-Gly511, N-terminally His6-tagged soluble protein) (human) (UniProt P50281); assay: FP competition on human MT1-MMP hemopexin domain (footnote a: tracer 17-69-07-N040; footnote e: 17-69-07-N004)
[5] = biological target: human MT1-MMP hemopexin domain (residues Cys319-Gly511, N-terminally His6-tagged soluble protein) (human) (UniProt P50281); assay: FP competition on human MT1-MMP hemopexin domain, tracer 17-69-07-N040 (footnote f)
[6] = biological target: human MT1-MMP hemopexin domain (residues Cys319-Gly511, N-terminally His6-tagged soluble protein) (human) (UniProt P50281); assay: fluorescence polarisation with the fluoresceinated peptide

B1: 17-69-07-N225 (peptide)
peptide: Ac-G[Sar][Sar][Sar][Sar][Sar][Sar][Sar][Sar][Sar][Sar]ACYNEFGCEDFYDIC
modifications: linker 13-19-26 via TBMB; not fully specified (C-terminus)
Kd [1]: 0.95 nM

B2: 17-69-07-N219 (peptide)
peptide: H-G[Sar][Sar][Sar][Sar][Sar][Sar][Sar][Sar][Sar][Sar]ACYNEFGCEDFYDIC
modifications: linker 13-19-26 via TBMB; not fully specified (C-terminus)
Kd [2]: 0.9 nM | Kd [3]: 0.82 nM | Kd [1]: 0.82 nM | Kd [4]: 0.82 nM

B5: 17-69-07-N258 (peptide)
peptide: fluorescein-[βAla][Sar][Sar][Sar][Sar][Sar][Sar][Sar][Sar][Sar][Sar]AC[dA]NE[1Nal][dA]CEDFYD[Tle]C
modifications: linker 13-19-26 via TBMB; not fully specified (C-terminus); printed as Fluorescein-(bAla)-Sar10-A-(17-69-07) D-Ala1 1Nal4 D-Ala5 tBuGlyl1
Kd [6]: 2.2 nM

B7: BT17BDC-17 (peptide)
peptide: {DM1-unhindered disulfide linker}-[βAla][Sar][Sar][Sar][Sar][Sar][Sar][Sar][Sar][Sar][Sar]AC[dA]NE[1Nal][dA]CEDFYD[Tle]C
modifications: linker 13-19-26 via TBMB; reading uncertain; also: exact linker structure not given here
Kd [4]: 0.7 nM

Continued, values first:

Kd [5]: 2.95 nM
B3: BT17BDC-20 (peptide)
peptide: {DM3-disulfide linker, one methyl on bicycle side}-[βAla][Sar][Sar][Sar][Sar][Sar][Sar][Sar][Sar][Sar][Sar]AC[dA]NE[1Nal][dA]CEDFYD[Tle]C
modifications: linker 13-19-26 via TBMB; reading uncertain; also: exact linker structure not given here

Kd [4]: 0.5 nM
B4: BT17BDC-19 (peptide)
peptide: {DM4-disulfide linker}-[βAla][Sar][Sar][Sar][Sar][Sar][Sar][Sar][Sar][Sar][Sar]AC[dA]NE[1Nal][dA]CEDFYD[Tle]C
modifications: linker 13-19-26 via TBMB; reading uncertain; also: exact linker structure not given here

Kd [4]: 0.99 nM
B6: BT17BDC-18 (peptide)
peptide: {DM1-disulfide linker, one methyl on bicycle side}-[βAla][Sar][Sar][Sar][Sar][Sar][Sar][Sar][Sar][Sar][Sar]AC[dA]NE[1Nal][dA]CEDFYD[Tle]C
modifications: linker 13-19-26 via TBMB; reading uncertain; also: exact linker structure not given here
